B1: TPR t1 (parent)
chain: GACCAAUCUGCCCUCAGAGCUCGAGAACAUCUUCGGAUGCAGAGGAGGCAGGCUUCGGUGGCGCGAUAGCGCCAACGUCCUCAACCUCCAAUGCAUCCCACCACAUGAUGAUGCCUGAAGAGCCUUGGUUUUUUG

Variants of: B1
Test: polymerase ribozyme fitness, log enrichment relative to wild type (log ratio); higher = more active; in vitro selection for triplet polymerase activity
Summary of the method: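 Mutant libraries of both subunits of a heterodimeric triplet polymerase ribozyme were PCR-built, transcribed, and selected once in triplicate, with frozen incubation at −7 °C and capture of gel-excised extended constructs on streptavidin beads before RT-PCR. Illumina sequencing of input and output libraries was filtered to genotypes with ≥10 input reads and ≥1 read per output. Fitness is the logarithm of genotype enrichment over wild-type enrichment, using inverse-variance-weighted replicate averages. The logarithm is base 2.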

Variant | polymerase ribozyme fitness (log ratio)
C15A G52U A66U C94G | -5.17
C15A C94U | -1.87
A16U C56U U87A A103U U112A | -4.76
U14G C40U U59C A84G U129A | -6.42
C15U A16U G57A C82U U112A | -5.23
C15G A37U C56U C123A | -1.93
A16G U54C | -1.39
A16G G60A U81A G117U | -4.21
A16G C86U | -1.54
C15A U109A | -5.42
C15U G58C G120C | 0.694
U14G C49G | -2.23
A16C G45C U59A C72A U112C G135U | -4.45
C15G C70G C86A G120A | -4.5
A16G G47A | -2.15
C15A C85G | -3.35
U14C G44A A46U A75G A95U | -3.28
A16U C102A | -3.35
A16U G17A G117A | -2.04
C15U A18G A37G U54A G65C A100U C115A | -5.35
A16G U92G C98G C114A | -6.53

Variant | polymerase ribozyme fitness (log ratio)
C15U A41G | -1.83
C15A G47U G127C | -5.43
C15G G71A U81C | -4.61
C15G A95U C98U | -5.14
U14G C53A A84C | -2.21
A16U | -1.46
A16C | -2.19
A16G | -0.761
A16G G60U G107U C124G | -4.06
C15A G120C | -0.2
C15A G120U | -1.44
U14C A46C C79U U106C | -3.22
C15A G45U A84U C123U | -2.4
C15U C62G C85A | -4.14
C15U G71U | -1.38
C15U A29U C40A A46C | -5.8
C15A C40A C102U C114G | -6.22
A16U C56G U125A | -3.24
C15U U96A A119G | 0.622
C15G G48A C85G | -3.62
U14C G44U | -3.05

Variant | polymerase ribozyme fitness (log ratio)
C15U A16U G71A C115A | -3.96
A16G A75U C123U | -0.477
A16G A29G G44A U87G A121C | -2.16
C15A A16U C88A | -3.46
C15U G44C G93A | -2.63
U14G C64U C98U | -4.29
C15G C88G | -3.07
U14G G60U G61A | -3.09
C15G A37G C62U C76U A118U C124U | -2.37
U14G C80U C89G | -4.89
C15U A83G | -1.88
C15A A16U C20A C89G G117U | -3.6
U14G U78A G117A G120A | -2.29
C15A A26G G110A G113U | -6
C15A U33C A83U C101G G117C | -7.47
A16U C56G C115A | -4.04
C15G G47U | -3.95
A16C G52A | -1.81
C15U A100U G117U | -2.41
C15G C40A U92C | -4.63
A16G C64U G77U | -1.55

Variant | polymerase ribozyme fitness (log ratio)
U14G A95G | -2.23
U14G A95U | -2.44
A16U A37C G71U A111U | -5.61
C15G C70G A90G C114G | -6.41
U14G G44C C80U | -3.74
C15G A50U | -3.73
C15G A41G C104U | -2.92
C15A C62A C76U U96G C115U | -6.47
C15A G42A G71U G117C | -5.93
U14A U106A | -1.9
A16U G17A G93A | -4.25
U14G A91U | -3.73
A16U G47U G60U U112G | -1.75
C15U G39U G52A | -3.14
C15U G17A G19A U38G G69C A75U U92G U109C C124U U134G | -5.8
C15A G77A U96A | -3.85
C15G G71A | -2.92
C15U A27G U32A A46C C82A G117U | -5.76
A16U A18U | -3.06
C15U G52C C62G U78A | -3.9
C15U G52U G61A C98U U125A U131A | -3.15

Source: the RNAGym collection of RNA variant scans (doi:10.1073/pnas.2313332121)
